Test [1] addresses PD-L2 (human) (UniProt Q9BQ51). As to the kind of experiment: FACS blocking of hPD-L2 binding to HEK293T-hPD-1; low antigen concentration.
The target of test [2] is endogenous PD-L2 (human) (UniProt Q9BQ51). As to the kind of experiment: FACS, NCI-H226 cells. Background: Flow cytometry measures light scatter and fluorescence of single cells or particles in a stream.
Test [3] has the same target. Put plainly: FACS, NCI-H226 cells. The source holds these as a separate data set.
Test [4] has as its target PD-L2 (human) (UniProt Q9BQ51). As to the kind of experiment: FACS blocking of PD-1 binding to CHO-K1/hPD-L2; high antigen concentration.
Test [5] concerns the target PD-L2 (human) (UniProt Q9BQ51). Put plainly: blocking of PD-L2 - PD-1 interaction (cell binding); low antigen concentration.
In test [6] the target is PD-L2 (human) (UniProt Q9BQ51). As to the kind of experiment: FACS, CHO-K1 expressing human PD-L2.
Test [7] addresses PD-L2 (human) (UniProt Q9BQ51). As to the kind of experiment: FACS blocking of PD-1 binding to CHO-K1/hPD-L2; high antigen concentration. The source holds these as a separate data set.

Like-named read-outs stand apart in the source and are kept apart here.

Broadly, the IC50 is the midpoint of a concentration-inhibition curve. The EC50 is the concentration needed to bring the measured effect to its halfway point.

For MIH18, the IC50 with PD-L2 (human) [1] turned out to be 0.104 nM; with PD-L2 (human) [4], 2.42 nM; with PD-L2 (human) [5] it was 0.0671 nM; with PD-L2 (human) [7], 1.8 nM. Besides, the values for the concentration giving a half-maximal response (EC50) with endogenous PD-L2 (human) [2], with endogenous PD-L2 (human) [3] and with PD-L2 (human) [6] were 2.21 nM, 2.69 nM and 1.59 nM, respectively.
